Data taken from PMC10522489, “Eukaryotic-like gephyrin and cognate membrane receptor coordinate corynebacterial cell division and polar elongation” (Nature Microbiology, 2023).

B3: Glp (gephyrin-like protein, Cgl0883), untagged (natural protein, Corynebacterium glutamicum ATCC13032, UniProt Q8NS03 1-419, looked up)
chain: MRSVEQQLSIVTEAAVAPEPVRIAIAEALGLMCAEEVQASRALPGFAQAAIDGYAVRAVDVGGEKSLSQQLPVAPPEKSLPVVGEVAAGSQQPLRLQPKQAVMVHTGAPLPMLADAVLPMAWSDRGRKRVTAQRPVRSGEFVRKEGDDIQPGDIAVSAGAVLGPAQIGLLAAVGRSKVLVYPRPRMSVISVGAELVDIDRQPGLGQVYDVNSYSLAAAGREAGADVYRYGIAAGEPRRIKEIIESQMLRSEIIVITGAVGGAGSAGVRQVLNELGDIDTERVAMHPGSVQGFGLLGENKIPCFLLPSNPVASLVIFETFVRPVVRMSLGKSNAARRVVRARALNHVVSVAGRKGFIRSRLMRDAETQDYLVEALGGATGAPSHLLAGLSEANGMIRIPEDVTEIRPGDVVDVIFLAQGR
notes: Glp (gephyrin-like protein, annotated molybdopterin molybdotransferase MoeA), Corynebacterium glutamicum ATCC13032, locus Cgl0883; Homodimer in the crystal structures; Called 'untagged Glp' in the BLI on GlpR; also called gephyrin-like repurposed molybdotransferase; MoeA paralogue; source: E. coli BL21 (DE3), purified (Ni-NTA, SUMO protease, SEC); not shown: His6, N-terminal, cleaved; SUMO, …

What was measured:
[1] = molecular target: Biotinylated His-GlpR (Corynebacterium glutamicum ATCC13032); assay: BLI; biotinylated GlpR immobilised on streptavidin biosensors; Wag31 150–2.34 μM in buffer A (20 mM HEPES pH 8.5, 150 mM NaCl, DDM 0.05%); 25 °C; apparent Kd from steady-state fit, one-site model
[2] = molecular target: Biotinylated His-GlpR (Corynebacterium glutamicum ATCC13032); assay: BLI; biotinylated GlpR immobilised on streptavidin biosensors; Wag31 1-61 (DivIVA) 200–3.15 μM in buffer B (25 mM HEPES pH 7.5, 150 mM NaCl, 10% glycerol, 0.05% DDM, 1 mg/ml BSA); 25 °C; apparent Kd from steady-state fit, one-site model
[3] = molecular target: B3; assay: differential scanning fluorescence (thermofluor); Glp 3 μg in 25 mM HEPES pH 8, 150 mM NaCl, 5% glycerol with or without 1 mM FtsZCTD; Sypro Orange; 25 to 95 °C; conditions: both partners purified
[4] = molecular target: B3; assay: BLI; C-terminal His-tagged GlpR immobilised on Ni-NTA biosensors; untagged Glp variants (Glp 100–1.56 nM) in 25 mM HEPES pH 7.5, 150 mM NaCl, 10% glycerol, 0.05% DDM, 1 mg/ml BSA; 25 °C; apparent Kd from steady-state fit; conditions: both partners purified
[5] = molecular target: T1, His-SUMO-FtsZ (Corynebacterium glutamicum, UniProt P94337 1-442); assay: BLI; His-SUMO-FtsZ immobilised on Ni-NTA biosensors; Glp 80–1.25 μM in 2-fold dilutions; polymerization buffer (25 mM Pipes pH 6.9, 100 mM KCl, 10 mM MgCl2); 25 °C; apparent Kd from steady-state fit, one-site model; conditions: both partners purified
T1 construct: FtsZ, tubulin-like cell division protein, Corynebacterium glutamicum; Captured on Ni-NTA biosensors; also called 6xHis-SUMO-FtsZ; immobilized SUMO-FtsZ; source: E. coli BL21 (DE3), purified (Ni-NTA, SEC); not shown: His6, N-terminal, kept; SUMO, N-terminal, kept
T1 sequence (looked up): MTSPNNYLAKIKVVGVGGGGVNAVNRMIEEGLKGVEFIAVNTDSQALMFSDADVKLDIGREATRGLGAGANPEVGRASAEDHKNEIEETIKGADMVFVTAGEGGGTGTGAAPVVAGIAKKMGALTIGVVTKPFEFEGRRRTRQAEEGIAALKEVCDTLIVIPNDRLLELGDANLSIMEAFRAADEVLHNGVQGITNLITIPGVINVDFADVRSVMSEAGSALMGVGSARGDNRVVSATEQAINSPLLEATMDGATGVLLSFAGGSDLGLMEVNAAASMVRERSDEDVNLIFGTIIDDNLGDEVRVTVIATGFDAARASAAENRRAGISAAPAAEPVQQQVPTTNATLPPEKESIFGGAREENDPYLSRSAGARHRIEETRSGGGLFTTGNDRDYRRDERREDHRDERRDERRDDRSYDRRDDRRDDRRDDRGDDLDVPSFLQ

[6] = molecular target: the molecule itself; assay: crystal structure; 0.34 mM Glp with 1.7 mM FtsZCTD peptide; 0.1 M NaCl, 0.1 M Bis-Tris pH 6.5, 1.5 M (NH4)2SO4; 2.7 Å

Wag31, full length (natural protein) was tested, and the Kd [1] was 43.4 µM.

In the case of “Wag31_(1–61) (N-terminal DivIVA domain of Wag31) (domain or fragment)”, the Kd [2] is reported as 14.9 µM.

B1: FtsZCTD peptide (peptide)
peptide: DDLDVPSFLQ
notes: C-terminal 10 residues of FtsZ, Corynebacterium glutamicum; also called 10-residue peptide FtsZCTD; C-terminal domain of FtsZ; source: synthetic peptide, bought: Genosphere
With B1 the “Tm shift of Glp” value [3] was 2 °C.

B2: GlpR (Glp receptor, Cgl0885), C-terminal His tag (receptor, Corynebacterium glutamicum ATCC13032, UniProt Q8NS01 1-340, looked up)
chain: MLHVSGILVIGLIVVVWLVVLAPLLLRGQKPIAKAGEAFDDTRVISEGGSNIPSPRRPGLSSAQLDDEEDTDDVDDDYEIVDSPSIFRPRKEEPVEEDLDTDVELEEDIEVSLETDDYVEPAPVVEVSQEWNVEDHYELDDSYDTPLDHLHPAARARAYEDFQEHQPEQQPEVEEFDADDELTEEDVAFAQRRRGRGYYDPEADREFAASQYVRRQRTLLGLAATVVISVILGFVFGGWVWGLPAVALAATALYLMALRSQVREENALRARRIRRLRRSRMGVRNSEDLPSRLRRPGAVVLELDDESPDFEGLPTVAMPEEPYYEEPRRNIRHLGQRRVS
notes: GlpR, integral membrane protein with 3 predicted transmembrane helices, Corynebacterium glutamicum ATCC13032, locus Cgl0885; In 0.05% DDM; also called C-terminal His-tagged GlpR; immobilized GlpR; source: E. coli BL21 (DE3), purified from membranes in DDM (Ni-NTA, SEC); not shown: His6, C-terminal, kept
In the case of B2, the Kd [4] is reported as 0.0055 ± 0.00075 µM.

With B3 the Kd [5] was 4.7 ± 0.77 µM and the “stoichiometry N” value [6] was 2.
